{"source": "the supplement of paper PMC12636428"}
{"system": "Saccharomyces cerevisiae", "test": "transcriptional activation domain activity (GFP:mCherry ratio, weighted mean of sorted bins, harmonized to initial dataset scale) (arbitrary fluorescence ratio units); higher = stronger transcriptional activation", "conditions": "beta-estradiol 1 µM; induction time 4 h", "in_short": "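The activation activity of each tile is the read-weighted mean of bin median fluorescence, averaged across its barcodes and mapped linearly onto the scale of the initial dataset. Tiles were fused to an estradiol-inducible synthetic transcription factor, barcoded, and integrated at URA3 in yeast diploids carrying a GFP reporter. Induction used 1 uM beta-estradiol in SC for 4 hours at 30 °C, after which cells were sorted into 8 GFP:mCherry bins, and any tile with fewer than 50 reads was dropped.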"}
{"sequence": "RLHILVGFVTVAEVTNIVFITRSSWRILIGGVERPDLILIPPATSVGTPILNG", "transcriptional activation domain activity": 35000}
{"sequence": "PQHCLDLNFMMALLHTGYGMPLEREVKIAKKIKGNELGWCLGASLPLLSKESG", "transcriptional activation domain activity": 84000}
{"sequence": "KMLLDHIKKFVITYTGGLVLACDISRYHEVIVQFKSVQVDEYFNVLKEICSLF", "transcriptional activation domain activity": 53900}
{"sequence": "MFYNAQFVDCGPSALVMVLVLLAPYLPNPLQLRRAFTTRPPTVLFAVLGILET", "transcriptional activation domain activity": 61600}
{"sequence": "MHVAYFMVLFFFIVLIDAHLVVPYIFDVELLTYMLNDAFKFDLFGCFCKVIVI", "transcriptional activation domain activity": 68900}
{"sequence": "NQRLREDGVDEIELDIISKLHPSRKDTAPRDIKPIPASKRGEISSKFEKLHEQ", "transcriptional activation domain activity": "< 6570"}
{"sequence": "MLPQFQEGNCEDLWNVLVWCTIPIPFDDCEAYPCDYQQNPYPNHINFWFYLFW", "transcriptional activation domain activity": 55600}
{"sequence": "ELWHSLYMLFKTYWCRLLHYALSLVLLCSFIVRLVSVIAILDSKRCGLTLFAA", "transcriptional activation domain activity": 73200}
{"sequence": "LLYLLLLLRKVSVMLCFIDLLIFGIFLCFLSLLLFLSLFFLFLFLLVFSEEFF", "transcriptional activation domain activity": 37600}
{"sequence": "VSRIRAAVEAQLNHPVNHVLIQHYRSGKDYISEHSDKTIDVVAGSKIVNISIG", "transcriptional activation domain activity": 37700}
{"sequence": "EVHLHIRKVYRHYDDLEHLGRRKFNFLTLVIRHLLDIVGIDSPWALFSRKPQQ", "transcriptional activation domain activity": 63000}
{"sequence": "IGWFFPFWIVLLLPLDMASSLYEGCDMLCRRPFTWVSQSFLYIAWRTIYWTSF", "transcriptional activation domain activity": 59000}
{"sequence": "SLDLEILEELEKLISAQEFSRNFTEDVDESLQSEIDLMNYDNEALNQLMAIDL", "transcriptional activation domain activity": 137000}
{"sequence": "PPGRVAPDAESVGYVLHSRLLTLLFPLFFFSLPLYNSSLLAGWAGWGLMMITF", "transcriptional activation domain activity": 62900}
{"sequence": "SSSKSKPIPDAKKRKSSASKPKSASSADRDTKRSGSRPESGKKSSTSSRSSKS", "transcriptional activation domain activity": 22900}
{"sequence": "GKGEEEVEEEERLYDRLVIANGHYRVPFVPPLPGLAAWQRAGRATHAAWYRAA", "transcriptional activation domain activity": 59800}
{"sequence": "PSLLVLAAHTLAKHGVLAPMSTLITRFLELPFQIKRPQLYYNLLLHAISRFPS", "transcriptional activation domain activity": 70100}
{"sequence": "LCFVFVLNIQAVLAVLWVIATKWIVIGRRRDGQYAWDSSSYCQRWQLHLVLSR", "transcriptional activation domain activity": 71600}
{"sequence": "MPTLLVSLCSFFPWPLFLSFLFLVFHTFASLVIVQKSHFILSYILIMHLSFFA", "transcriptional activation domain activity": 46300}
{"sequence": "MGLGVLYHLSLLFPFLFFFLYLSSSFPSFLILFFFFFGYSPSAVWVFLFCFGQ", "transcriptional activation domain activity": 58100}
{"sequence": "DEDRRKRRRSRSRSPDREEESSRRRRDRSRSRSKDADRKKRKRDKSEERKARK", "transcriptional activation domain activity": 30900}
{"sequence": "AYNALQILSWTCRLICSSVLSLHWFRPGHESILQLYDSITFFLTMFFIELLSH", "transcriptional activation domain activity": 49100}
{"sequence": "MIISAVYITYFFSLSYLFFPLYLFIVYPFFSFLFNLLAKDTFIVDTYIIVFFA", "transcriptional activation domain activity": 50600}
{"sequence": "LLYLGCRWCTLIAIIFHFLGFDGGHRIDCQFMGYFSFTCASALIVLRIVAFWA", "transcriptional activation domain activity": 66900}
{"sequence": "HLLDTNCLLLILKMFGLQEVTNSVVSKVDSPENNFFRYCLMNYSKNPQPMRPE", "transcriptional activation domain activity": 39100}
{"sequence": "TSRAPPSASPPTASHGAPTPPPPSPSSSPAPATPSSHPCPPTSSSSRPPSSPP", "transcriptional activation domain activity": 41800}
{"sequence": "MAKKGSASTDKKAADKSDKKGKAKATTDDGEEKQAKGKGSLKAATAVNVRHIL", "transcriptional activation domain activity": 36900}
{"sequence": "MDLGSAVPAPRRRIRDRTSQACNRCRATKIRCDNQAPACSPCRAKKLECIRDP", "transcriptional activation domain activity": 37600}
{"sequence": "EREEEEEEEEEEEEVVVVAKAKANEREREEEAEEAEEVEEVVAKSRKAKGKAK", "transcriptional activation domain activity": 16600}
{"sequence": "MSTNSPESTGDHTDTERKDMPRKRSKVSRACDACRRKKVRCDAEFLTTLQKVT", "transcriptional activation domain activity": 79400}
{"sequence": "FAFLAPFFCFLFYMSMGFFRLFLFCFLGFGTFVVFNLILVPAFSLYLNHVYLL", "transcriptional activation domain activity": 68100}
{"sequence": "PWLLLIRYLALGTNLSMVVLTFGIFGLQWNRWISILTLRVYTMFNRKRVILWL", "transcriptional activation domain activity": 61100}
{"sequence": "NRWMMATFMSGCVGALVYFFYKLVKVVMLKSTPSFVSIWKSLTTFSIIAIFLL", "transcriptional activation domain activity": 37200}
{"sequence": "TFLQVCGSSSIGFSSINLSLRTMAIYGQSLYVVIALVILILGHWCLLLHGLML", "transcriptional activation domain activity": 63800}
{"sequence": "FSLIKGLGSLVPLNKLRQESLLEEEDENNTEPSDFRTIVEEFQSEYNISDILS", "transcriptional activation domain activity": 45000}
{"sequence": "ICIPLPFQTLVCSHIVLTPLFYPLFCTPLDIFYVSNYSCLVLVLSLPFHFFLH", "transcriptional activation domain activity": 39400}
{"sequence": "YNIRAKGFNIFNITISVALVFNQYVNPIALAALTWKYYVVYCVWLVCECIFLY", "transcriptional activation domain activity": 60100}
{"sequence": "AAAAAPATTTTESAPAPAAEAAKPAEEAKPAATEAAPAADATAAAPAPAPAAA", "transcriptional activation domain activity": "< 6570"}
{"sequence": "MALKAREELEEIYGMPVIYIPVFISCMHRINAVLLSLGNFLLISGAYLRSSFV", "transcriptional activation domain activity": 53200}
{"sequence": "FATFYVARDVFHVTPNELHSIMYLHISSAPHFVIFSTRVPGFWWENMPHWLFF", "transcriptional activation domain activity": 51500}
{"sequence": "MFGIGFFSRVLPWLWLWLWLYFFFFFFLYIFCMHYEQFSLSLTYNKLPFSLAL", "transcriptional activation domain activity": 65900}
{"sequence": "RSKAKDDDRSSDESDSKSSKSNKSKRSKHNNDSDSENGSSDEDRGSKRRKKSK", "transcriptional activation domain activity": 23000}
{"sequence": "LYECLKYMLFTFAGSTHTNYMAYLLETIINLELESSPGLKEALLLCLLINLTG", "transcriptional activation domain activity": 48700}
{"sequence": "VVFNQIWIYFFIYTMIFICLILVAFYTVLLVLLIHPKKIPHNTRTVLNVYRAR", "transcriptional activation domain activity": 66100}
{"sequence": "MVFDCEFQHIQFSGSLLCLPLWDFFLRCIVCGHRSIFYIFYIIFVILFLHFLT", "transcriptional activation domain activity": 30500}
{"sequence": "LLSGRLFLGFYAAKNILRLARAFAATRQVIYDLGKFYRSPLTAPDRIAHLFPS", "transcriptional activation domain activity": 47000}
{"sequence": "QGIGLMYLVLVMLCLASLLITNLHFLTVYRSTLIHSYMSQLIVFSFLLPLSLV", "transcriptional activation domain activity": 44700}
{"sequence": "MVQNWEFFVFFFLPFNSFFSFFLPFCEVYMCAVCGLWCGSPGKLLGLFYFWFV", "transcriptional activation domain activity": 36600}
{"sequence": "EEDDVKSEKSSRSKRRESTKEEVASPVRSERGSDKSSRSKKRDIVAEAAAIVS", "transcriptional activation domain activity": 35500}
{"sequence": "KRVKKEETVEKKPAVETEAPKKRGRKAAVSASAEEPKAAPAKRSRRKVSATAA", "transcriptional activation domain activity": 13300}
{"sequence": "NNLLELITDIIIALDMNFVNCMTCVDDDEKALMTLRICEYFIDRLVRTIMVAT", "transcriptional activation domain activity": 51300}
{"sequence": "AFGGGNTTGGGMFGNNTSKPAFGGTSNTGGALFGGGSNTNTGTAGFGTSFGGT", "transcriptional activation domain activity": 13900}
{"sequence": "DEPTTDEKKVEETAVAVANLSVEGKKDEKKEEATLSDDKKTEAATEAVAAAPV", "transcriptional activation domain activity": 10100}
{"sequence": "ELLESTEREGGRGLRPAKAEVREGGLDGVVGGLEDLRGGRVSGRKLVYRVGTE", "transcriptional activation domain activity": 35700}
{"sequence": "PEPVSEEPKAESSRTATAPPSLARRAASYFVSSFRGRTLHGTKIDVPDGYTGL", "transcriptional activation domain activity": 49000}
{"sequence": "KEVAAAEVAPADTAAAEAKPSKKEKKEKEKKPAEGPEGGKKKEKAAGGGGKAA", "transcriptional activation domain activity": 24500}
{"sequence": "GMEGERVKESIRRVQHQGADELYRRSQEKNGKGLRLSQSKTRSRGETPLQLIA", "transcriptional activation domain activity": 63100}
{"sequence": "FCMLNHWYARSWGTYLWLGLLLTDLDVTYKYKKWLYAHPGTYYPLLTFAWLCV", "transcriptional activation domain activity": 63000}
{"sequence": "MNPHFLLPSIVSFQFSCFFGCLVVYLSVFFSRFIFILTFPSIYFSSTVFFFVS", "transcriptional activation domain activity": 37100}
{"sequence": "SKPSARKASSRSVASKEQAAVAAKKVASVEEQKKKRGRPRKLPLSDATNEVAS", "transcriptional activation domain activity": 42100}
{"sequence": "EMAVACISVLILIGYNTIILYVYPLYPTRSPLRLSETYINHLLSNFLWWFIMF", "transcriptional activation domain activity": 59100}
{"sequence": "LLVRLRKEYYLALFIFWRVGYNVLLGLMLRSQSDWNLLVRFAKRYGFGQNAGK", "transcriptional activation domain activity": 48800}
{"sequence": "VQASMAADYAISQFRFLHKLLLVQGHWSYARISEMILTFFFKNIFWVFPSLWY", "transcriptional activation domain activity": 56100}
{"sequence": "RGERGQGAGGRGEGEGRGAGGERERRGGEREEGRGRERDERQGGKRERERGQG", "transcriptional activation domain activity": 21800}
{"sequence": "MHCRDIMRFNEMELAKLRLLLGSNCQALRNTASLLSRNLACSKIIYLSVRLGE", "transcriptional activation domain activity": 21000}
{"sequence": "MLFHFLAFPFLFFIFFLCCFSSWVAFHSPFSFLIMFSFEWIMLFFIRCTASSV", "transcriptional activation domain activity": 41600}
{"sequence": "SSGDERQKHQTKSSSKKSREKSKKAAGRNKAEEAKTNDGRKSTRKPSKRTRST", "transcriptional activation domain activity": 24900}
{"sequence": "TRHLHFTRYHIFTNSKCILLAVGKLLYCACALGWYGLIVGFVVTVLMLCQDSL", "transcriptional activation domain activity": 22600}
{"sequence": "NPTDTILILATSLPTVSTFFINYLLLQGLIGSAIELTQAYRLLWNIVIVRWFA", "transcriptional activation domain activity": 54500}
{"sequence": "AGEAPIAEGQQAQEARPAAEGAGAGTENQPGRAEGEAAKAEAQAEQQQQQGQA", "transcriptional activation domain activity": 10300}
{"sequence": "LSLADFAWKLSDGEEKREQCGNVAQILLNTISHRVLRTIIRHLVAVVGVLTPS", "transcriptional activation domain activity": 60000}
{"sequence": "TLFTGMHKNIIRLLPYRVARILYILLRVVRPVELMPILKFWIPVGNNKANAAV", "transcriptional activation domain activity": 40700}
{"sequence": "RGVEKLKVEVGCFFWILGEGMIADERLKKFMKDMAHARHVVSSPDVCPNIITY", "transcriptional activation domain activity": 40800}
{"sequence": "GPRDVFGIRSAWKLPLSVAYWLLVCLARRKDFGSLRAVTVGHITWNQYMVGER", "transcriptional activation domain activity": 58600}
{"sequence": "AGLTLPRTSDYSLFYYFLLWFTLFGLAMLFIIIHGIDYVSWPRLIPLTDIIYY", "transcriptional activation domain activity": 17600}
{"sequence": "PEEKKEKAAEGEATKKEGEVGKKKGKKGDKKKEASGEQAPAAAAPAEEKKAEQ", "transcriptional activation domain activity": "< 6570"}
{"sequence": "MMFETHFWSLSSLLLFFFSFFLFLSLYLGVSILFFQFPFPFPFPFPFFFYLFL", "transcriptional activation domain activity": 39500}
{"sequence": "ESFKPAPAPKKEEAPKEEAKPAEEGAKAEEAPKEGENKEEAKPAEEPKRRSAS", "transcriptional activation domain activity": 28400}
{"sequence": "SSSKSAADVAAGEGKKTEKAGEKKEGTAAAAEKKKIEEKPAREEKKEEEKVPV", "transcriptional activation domain activity": 24300}
{"sequence": "TNPAFANSSLPPIHSSFSTLSNPPSIFCVLPPFLPSFPLSFPFFFSFPFFLFL", "transcriptional activation domain activity": 52500}
{"sequence": "MKELSFFPISISIQRYSHIRWVLLHCTNYLISFVYHCYVIILSVFFFLYIFTA", "transcriptional activation domain activity": 76900}
{"sequence": "LLVLYLVLSYLKHSHMEGLGEFMIKFFEECNVDPFSKVFRGGHYKESVFEGVY", "transcriptional activation domain activity": 76100}
{"sequence": "EASRSKAATAAAAAADGGKSAAAGEVEERKRKAKAEREAKKAKGALAAAAGAG", "transcriptional activation domain activity": 31600}
